Assay [1] deals with platelet glycoprotein receptor Ib (UniProt P07359).
For assay [2] the target is unchanged. This is another data set of the same source.

For the substance “von Willebrand factor in plasma (from UniProt P04275 764-2813) (natural protein)”, the VWF:RCo activity in factor VIII-deficient plasmas after addition of purified recombinant factor VIII in assay [1] was determined as 4 fold. Besides, in assay [2], the VWF:RCo activity (ristocetin co-factor assay, aggregation of fixed platelets) in factor VIII-deficient plasmas after addition of polyP65 (2.5 and 7.1 µM) came out at 2 fold.
